Measurements: patent US6376459

Molecular target: CD40CR (CD40 counter-receptor), 39 kD membrane protein of activated murine helper T cells (murine) (UniProt P27548)
Assay: flow cytometry on activated Th, FITC-RG7 detection

Chain of UniProt P27548 (P27548 whole entry): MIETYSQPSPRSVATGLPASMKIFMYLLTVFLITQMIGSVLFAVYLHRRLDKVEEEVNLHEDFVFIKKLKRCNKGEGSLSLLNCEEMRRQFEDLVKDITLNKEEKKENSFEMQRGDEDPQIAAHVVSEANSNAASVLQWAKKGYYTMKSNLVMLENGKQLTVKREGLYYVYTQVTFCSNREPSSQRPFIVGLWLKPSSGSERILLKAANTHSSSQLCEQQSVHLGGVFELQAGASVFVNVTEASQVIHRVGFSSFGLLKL

A percent positive cells of 61% was found for “MR1, hamster anti-murine gp39 monoclonal antibody” in this work.
